In the supplement of paper PMC7877785:
± gives the uncertainty stated by the source.

Assay: self-splicing fitness, log relative to wild type (ln ratio); higher = more splicing; Tetrahymena group I intron in knt gene, E. coli kanamycin selection, DiMSum; sequences stand for … in CUCUCU…GGAGGGAAAAGUUAUCAGGCAUGCACCUGGUAGCUAGUCUUUAAACCAAUAGAUUGCAUCGGUUUAAAAGGCAAGACCGUCAAAUUGCGGGAAAGGGGUCAACAGCCGUUCAGUACCAAGUCUCAGGGGAAACUUUGAGAUGGCCUUGCAAAGGGUAUGGUAAUAAGCUGACGGACAUGGUCCUAACCACGCAGCCAAGUCCUAAGUCAACAGAUCUUCUGUUGAUAUGGAUGCAGUUCACAGACUAAAUGUCGGUCGGGGAAGAUGUAUUCUUCUCAUAAGAUAUAGUCGGACCUCUCCUUAAUGGGAGCUAGCGGAUGAAGUGAUGCAACACUGGAGCCGCUGGGAACUAAUUUGUAUGCGAAAGUAUAUUGAUUAGUUUUGGAGUACUCGUGGUCG
Summary of the method: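 Six replicate transformations of E. coli BL21(DE3) with a pET-22b(+) library were grown overnight at 37°C or 30°C. The library randomised all eight P1ex-region intron nucleotides, the intron lying in the knt kanamycin-resistance gene, and plates were LB agar with or without 25 μg/mL kanamycin plus 100 μg/mL carbenicillin, 50 μM IPTG and 0.2% rhamnose. Pooled colonies were amplicon-sequenced on an Illumina HiSeq 2500, and fitness is the DiMSum error-weighted combination of wild-type-normalised replicate fold changes, kanamycin versus none.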

Sequence	self-splicing fitness (ln) (30 °C)	self-splicing fitness (ln) (37 °C)
CUUAAGCAAUAUUACGACAC	-3.04 ± 0.38	-1.54 ± 0.44
UGUUAGCAAUAUUACGACCA	0.586 ± 0.18	-0.351 ± 0.24
ACAUAGCAAUAUUACGCGCC	-0.408 ± 0.16	0.199 ± 0.26
UACAAGCAAUAUUACGCAGU	-3.96 ± 0.27	-3.27 ± 0.21
GCUGAGCAAUAUUACGGCGU	-0.642 ± 0.14	0.234 ± 0.15
UUUUAGCAAUAUUACGGUCA	-1.25 ± 0.17	-0.069 ± 0.13
GCAAAGCAAUAUUACGUGUU	-1.88 ± 0.086	-1.03 ± 0.11
CUAAAGCAAUAUUACGGACU	-3.93 ± 0.25	-1.9 ± 0.27
UGUAAGCAAUAUUACGUAGU	-3.01 ± 0.21	-0.923 ± 0.18
AAAAAGCAAUAUUACGAGGA	-2.86 ± 0.16	-2.21 ± 0.15
AAGCAGCAAUAUUACGCAGG	-2.34 ± 0.14	-1.13 ± 0.11
CACCAGCAAUAUUACGAUUA	-2.82 ± 0.14	-1.26 ± 0.11
AGCGAGCAAUAUUACGAUUG	-4.39 ± 0.42	-1.52 ± 0.34
GUACAGCAAUAUUACGCAUU	-2.76 ± 0.14	-0.835 ± 0.087
UCGGAGCAAUAUUACGAAAC	-2.87 ± 0.28	–
GAUGAGCAAUAUUACGCAGG	–	-2.24 ± 0.43
CACCAGCAAUAUUACGAGAA	-3.55 ± 0.43	-2.33 ± 0.28
UGCAAGCAAUAUUACGUUUG	-4.16 ± 0.33	-2.87 ± 0.33
ACCGAGCAAUAUUACGCAUC	-1.14 ± 0.17	–
GCUUAGCAAUAUUACGAUUU	-0.0141 ± 0.091	-0.234 ± 0.12
AGCGAGCAAUAUUACGCCUU	-1.94 ± 0.25	-2.62 ± 0.48
AGCAAGCAAUAUUACGUCGA	-1.99 ± 0.11	-0.323 ± 0.097
ACAAAGCAAUAUUACGUGUU	-3.59 ± 0.17	-2.61 ± 0.16
UUCAAGCAAUAUUACGAGAU	-3.07 ± 0.19	-2.17 ± 0.18
GCUUAGCAAUAUUACGACCC	-0.525 ± 0.22	-0.569 ± 0.38
UUAAAGCAAUAUUACGUGGA	-2.45 ± 0.072	-0.864 ± 0.073

Sequence	self-splicing fitness (ln) (30 °C)	self-splicing fitness (ln) (37 °C)
UGCUAGCAAUAUUACGCAGA	-4.03 ± 0.31	-2.26 ± 0.17
CGAUAGCAAUAUUACGGACA	-2.4 ± 0.28	-0.977 ± 0.16
UAUUAGCAAUAUUACGACGA	-0.31 ± 0.18	-0.557 ± 0.23
UGAAAGCAAUAUUACGUAUG	-1.53 ± 0.098	-1.21 ± 0.14
ACUCAGCAAUAUUACGGAUC	-1.46 ± 0.1	-0.352 ± 0.11
AAAUAGCAAUAUUACGAGGG	-3.73 ± 0.19	-3.61 ± 0.22
CGGAAGCAAUAUUACGGAGG	-1.25 ± 0.15	-1.01 ± 0.21
UGGCAGCAAUAUUACGAUUG	-1.07 ± 0.074	0.135 ± 0.093
UAGUAGCAAUAUUACGAAUG	-2.77 ± 0.16	-0.412 ± 0.13
AUAGAGCAAUAUUACGUGGU	-2.91 ± 0.19	-1.83 ± 0.2
CCGAAGCAAUAUUACGCUCU	-3.24 ± 0.4	–
CAGAAGCAAUAUUACGGGUA	-2.8 ± 0.16	-2.25 ± 0.13
CUAGAGCAAUAUUACGGUCG	0.342 ± 0.11	-0.264 ± 0.13
GAUUAGCAAUAUUACGCAUA	-2.08 ± 0.17	-0.967 ± 0.14
CCAAAGCAAUAUUACGGAGG	-3.79 ± 0.25	-2.04 ± 0.21
AUAGAGCAAUAUUACGGUUA	-1.49 ± 0.083	-1.05 ± 0.11
CUAGAGCAAUAUUACGUCGG	-0.971 ± 0.095	-0.975 ± 0.1
GCAGAGCAAUAUUACGAUCA	-4.02 ± 0.42	-1.94 ± 0.18
CCCGAGCAAUAUUACGGUGC	-4.61 ± 0.32	-2.77 ± 0.16
UAUCAGCAAUAUUACGCUAC	-4.2 ± 0.42	-3.24 ± 0.26
AAAUAGCAAUAUUACGUAAC	-2.1 ± 0.2	-0.398 ± 0.2
GGUUAGCAAUAUUACGUAAA	-1.22 ± 0.13	-0.462 ± 0.2
CGCCAGCAAUAUUACGGGAU	-3.96 ± 0.27	-2.32 ± 0.28
CUGCAGCAAUAUUACGUUGU	-4.62 ± 0.25	-2.54 ± 0.2
ACUCAGCAAUAUUACGUGCC	-0.982 ± 0.13	-0.189 ± 0.12
ACAGAGCAAUAUUACGUUGG	-2.73 ± 0.16	-3.57 ± 0.19

Sequence	self-splicing fitness (ln) (30 °C)	self-splicing fitness (ln) (37 °C)
UCAUAGCAAUAUUACGUUUG	-3.04 ± 0.18	-1.84 ± 0.2
UCAUAGCAAUAUUACGAUGU	-2.55 ± 0.12	-0.735 ± 0.1
CUGCAGCAAUAUUACGGGAC	-2.53 ± 0.22	-0.85 ± 0.17
AAACAGCAAUAUUACGAUAC	-2.44 ± 0.11	-1.37 ± 0.14
GUAAAGCAAUAUUACGAAGC	-1.89 ± 0.13	-1.83 ± 0.22
UGUUAGCAAUAUUACGGCUA	-1.01 ± 0.19	0.14 ± 0.19
UAUUAGCAAUAUUACGACCC	-3.2 ± 0.38	-0.71 ± 0.33
GCAUAGCAAUAUUACGAUUC	-0.8 ± 0.083	-0.436 ± 0.097
UGGUAGCAAUAUUACGGGGC	–	-2.37 ± 0.38
AGCGAGCAAUAUUACGAUAC	-3.47 ± 0.47	-2.29 ± 0.39
UAUUAGCAAUAUUACGUUUU	–	-0.0777 ± 0.32
ACAGAGCAAUAUUACGCGUU	–	-1.16 ± 0.29
AGUCAGCAAUAUUACGUAUU	-1.08 ± 0.079	-0.181 ± 0.094
UACAAGCAAUAUUACGUUAG	-3.02 ± 0.11	-2.11 ± 0.097
AUUCAGCAAUAUUACGUUAG	-3.78 ± 0.15	-1.52 ± 0.1
GAUAAGCAAUAUUACGAGGG	-4.01 ± 0.39	-2.19 ± 0.24
UGCGAGCAAUAUUACGGCAG	-1.33 ± 0.15	-1.59 ± 0.21
ACCAAGCAAUAUUACGAACU	-0.54 ± 0.061	-0.819 ± 0.08
CGGUAGCAAUAUUACGUAUG	-0.225 ± 0.092	0.297 ± 0.12
GAGUAGCAAUAUUACGAUCG	-1.06 ± 0.11	-0.986 ± 0.12
UUUAAGCAAUAUUACGUUGU	-3.69 ± 0.25	-2.2 ± 0.26
CGACAGCAAUAUUACGCCUC	-2.24 ± 0.2	-0.498 ± 0.2
UCCCAGCAAUAUUACGCCGC	-4.73 ± 0.32	-3.05 ± 0.27
CACGAGCAAUAUUACGGUCG	-1.72 ± 0.14	-0.457 ± 0.14
ACCGAGCAAUAUUACGAGUA	-3.23 ± 0.27	-3.5 ± 0.35
